Data from US20210388105A1 (ELPISCIENCE SUZHOU BIOPHARMA, published 2021).
One block for each binder: values may come before it.

What was measured:
[1] = molecular target: T1, human CD39 (full length, on cells) (human, UniProt P49961 1-510); assay: cell-based or functional assay
T1 sequence: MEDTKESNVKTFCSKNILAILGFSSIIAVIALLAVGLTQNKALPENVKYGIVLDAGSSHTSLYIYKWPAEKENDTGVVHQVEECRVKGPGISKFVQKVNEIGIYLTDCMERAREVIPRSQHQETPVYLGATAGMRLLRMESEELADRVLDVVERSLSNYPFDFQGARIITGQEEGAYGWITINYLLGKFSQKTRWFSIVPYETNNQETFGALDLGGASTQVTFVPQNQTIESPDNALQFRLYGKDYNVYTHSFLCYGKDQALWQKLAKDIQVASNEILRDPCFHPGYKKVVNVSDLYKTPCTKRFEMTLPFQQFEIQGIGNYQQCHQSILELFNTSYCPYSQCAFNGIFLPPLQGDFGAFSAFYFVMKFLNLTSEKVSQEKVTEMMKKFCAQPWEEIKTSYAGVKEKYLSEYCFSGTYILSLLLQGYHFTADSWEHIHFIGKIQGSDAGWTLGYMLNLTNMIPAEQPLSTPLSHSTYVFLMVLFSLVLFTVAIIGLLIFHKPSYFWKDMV

[2] = molecular target: T2, mouse CD39 (full length, on CHOK1-mCD39 cells) (mouse, UniProt P55772 1-510); assay: FACS on CHO-k1/mCD39 cells, MFI [Continued) E]
T2 construct: whole, on cells
T2 sequence (looked up): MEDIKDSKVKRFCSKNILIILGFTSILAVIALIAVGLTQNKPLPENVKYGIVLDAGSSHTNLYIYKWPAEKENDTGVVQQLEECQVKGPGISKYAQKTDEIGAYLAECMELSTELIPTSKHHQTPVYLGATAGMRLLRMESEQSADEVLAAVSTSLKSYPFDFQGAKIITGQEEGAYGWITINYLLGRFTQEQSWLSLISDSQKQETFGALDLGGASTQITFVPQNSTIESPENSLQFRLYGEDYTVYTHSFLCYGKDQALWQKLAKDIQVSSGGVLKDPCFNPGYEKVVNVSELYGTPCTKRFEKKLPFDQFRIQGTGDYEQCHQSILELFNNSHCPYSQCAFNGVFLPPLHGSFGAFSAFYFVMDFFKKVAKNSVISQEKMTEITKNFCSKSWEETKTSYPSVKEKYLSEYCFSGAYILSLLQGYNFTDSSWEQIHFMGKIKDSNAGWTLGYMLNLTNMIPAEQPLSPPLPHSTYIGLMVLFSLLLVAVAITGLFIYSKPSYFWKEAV

ENTPD2 protein = molecular target: T3, ENTPD2 protein (Homo sapiens (Human), UniProt Q9Y5L3 29-462); assay: ELISA on coated ENTPD2 protein, anti-hIgG-HRP, OD450
T3 construct: also called CD39L1; ENTPDase 2
T3 sequence: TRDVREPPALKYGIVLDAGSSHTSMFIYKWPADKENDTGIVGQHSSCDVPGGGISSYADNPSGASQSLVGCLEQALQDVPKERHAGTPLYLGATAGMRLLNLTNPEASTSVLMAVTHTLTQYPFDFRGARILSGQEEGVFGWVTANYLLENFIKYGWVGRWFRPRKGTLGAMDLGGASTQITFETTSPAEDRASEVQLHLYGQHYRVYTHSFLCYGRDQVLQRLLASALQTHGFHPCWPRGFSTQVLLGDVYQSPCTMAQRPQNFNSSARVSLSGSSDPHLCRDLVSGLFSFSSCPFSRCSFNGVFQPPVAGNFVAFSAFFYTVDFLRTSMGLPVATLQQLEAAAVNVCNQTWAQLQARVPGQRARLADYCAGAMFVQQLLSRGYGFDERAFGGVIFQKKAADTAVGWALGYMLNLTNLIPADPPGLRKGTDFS
Method: (§1) Binding specificity of the purified humanized antibody hu23.H5L5 against ENTPDase family members was detected by ELISA assay. Briefly, ENTPD1 (i.e. CD39) and ENTPD 2/3/5/6 proteins were coated on 96-well ELISA plates at 4° C. overnight, next day the ELISA plates were washed and blocked using blocking buffer (1% BSA in PBS with 0.05% Tween20) 200 μL/well for 2 hours. Then hu23.H5L5 gradients were duplicated into the wells and stained with anti-hIgG-HRP. After plate washing, the plates were developed with TMB substrate and stopped by 2N HCl. The OD450 were recorded using plate reader and platted by Graphpad Prism.

ENTPD3 protein = molecular target: T4, ENTPD3 protein (Homo sapiens (Human), UniProt O75355 44-485); assay: ELISA on coated ENTPD3 protein, anti-hIgG-HRP, OD450
T4 construct: also called CD39L3; ENTPDase 3
T4 sequence: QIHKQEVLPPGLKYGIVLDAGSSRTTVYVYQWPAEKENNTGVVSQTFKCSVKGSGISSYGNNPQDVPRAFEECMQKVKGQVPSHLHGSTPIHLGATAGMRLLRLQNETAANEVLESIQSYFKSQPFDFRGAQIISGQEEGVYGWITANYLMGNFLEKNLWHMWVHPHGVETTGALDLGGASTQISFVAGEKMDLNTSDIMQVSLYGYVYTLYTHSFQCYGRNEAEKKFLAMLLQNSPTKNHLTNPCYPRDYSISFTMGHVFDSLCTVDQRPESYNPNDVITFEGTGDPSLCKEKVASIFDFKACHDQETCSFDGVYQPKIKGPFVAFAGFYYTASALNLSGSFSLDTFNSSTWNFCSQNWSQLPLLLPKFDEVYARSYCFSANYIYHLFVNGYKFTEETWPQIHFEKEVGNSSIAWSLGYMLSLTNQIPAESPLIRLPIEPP
Method: as §1

[3] = molecular target: T5, human CD39 (protein; form not stated) (human, UniProt P49961 38-478, limits assumed); assay: Octet (BLI)
T5 construct: also called ENTPD1; ENTPDase 1
T5 sequence: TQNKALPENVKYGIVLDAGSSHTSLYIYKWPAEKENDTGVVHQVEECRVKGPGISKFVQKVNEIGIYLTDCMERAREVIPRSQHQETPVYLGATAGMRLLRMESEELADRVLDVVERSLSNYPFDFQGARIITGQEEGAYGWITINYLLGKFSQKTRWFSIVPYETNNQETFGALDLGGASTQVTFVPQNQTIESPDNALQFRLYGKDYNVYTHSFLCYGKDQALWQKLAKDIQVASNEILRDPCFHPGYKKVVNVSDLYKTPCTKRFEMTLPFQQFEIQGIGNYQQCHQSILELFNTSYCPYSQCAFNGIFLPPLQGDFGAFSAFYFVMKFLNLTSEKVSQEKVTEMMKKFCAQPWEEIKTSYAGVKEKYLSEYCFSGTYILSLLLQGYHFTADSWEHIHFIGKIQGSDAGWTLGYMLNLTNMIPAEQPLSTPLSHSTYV

ATPase inhibition IC50 on SK-MEL-28 cells [1]: 0.122 nM | binding result [2]: no binding | binding result (ENTPD2 protein): no binding (tested: about 66 nM) | binding result (ENTPD3 protein): no binding (tested: about 66 nM)
B1: hu23.H5L5 (antibody, V domains shown)
VH: QVQLVQSGAEVKKPGASVKVSCKASGYNLKDTFLHWVRQAPGQGLEWMGRIDPANGNIKYDPKFQGRVTITADTSANTAYMELISLRSEDTAVYYCANSPYYYGSGYRIFDVWGQGTTVTVSS
VL: QIVLTQSPATLSLSPGERATLSCSAFSSVNYMHWYQQKPGQAPRLLIYTTSNLASGIPTRFSGSGSGTSYTLTISSLEPEDFAVYYCQQRSTYPFTFGQGTKLEIK
notes: humanized c23

Kd [3]: 0.24 nM
B2: mAb14 (antibody, V domains shown)
VH: EVKLEESGGGLVQPGGSMKLSCVASGFTFSKYWMNWVRQSPEKGLEWVAEIRLKSNKYGTHYAESVKGRFTISRDDSKNNVYLQMNNLRPEDTGIYYCTTQLDLYWFFDVWGAGTTVTVSS
VL: DIVMTQSPAILSVTPGDRVSLSCRASQSISDYLHWYQQKSHESPRLLIKYASQSISGIPSRFSGSGSGSNFTLSINSVEPEDVGVYFCQNGHSLPLTFGAGTKLELR
notes: mouse hybridoma antibody
